Results taken from PMC3907276 (Molecular Biology of the Cell, 2014).

Target: T1, Vph1NT-FLAG (first 406 amino acids of Vph1p with C-terminal FLAG) (S. cerevisiae, UniProt P32563 1-406)
T1 sequence (looked up): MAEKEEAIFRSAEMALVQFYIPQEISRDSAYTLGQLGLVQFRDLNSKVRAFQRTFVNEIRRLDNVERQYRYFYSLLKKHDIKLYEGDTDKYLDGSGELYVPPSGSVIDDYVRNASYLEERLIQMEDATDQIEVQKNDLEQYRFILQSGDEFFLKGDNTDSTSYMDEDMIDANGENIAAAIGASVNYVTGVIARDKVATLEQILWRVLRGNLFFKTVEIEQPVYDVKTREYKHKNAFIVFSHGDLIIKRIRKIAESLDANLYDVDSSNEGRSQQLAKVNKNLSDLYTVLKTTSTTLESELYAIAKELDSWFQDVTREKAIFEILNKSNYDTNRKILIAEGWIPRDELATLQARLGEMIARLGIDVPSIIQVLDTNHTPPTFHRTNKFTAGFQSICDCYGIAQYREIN
Assay: pull-down

binding result: binds
B1: GST-Rav1(840–1125) (domain or fragment, S. cerevisiae, UniProt P47104 840-1125, looked up)
chain: LTEQLTKTTLPYLTRHQQITLITVIEAVDEVTKNENIVDYNGVRFLLGVKLFLSHKNIQKSILMRDVSWALHSDNKEILLSSIDRHITSWNRAREYRIAYWIKEQDLVKKFEDIAKYEFSKDDKRDPSRCAIFYLALKKKQILLSLWKMAIGHPEQQKMVRFISNDFTVPRWRTAALKNAFVLLSKHRYMDAAVFFLLTDSLKDCVNVLCKQVHDMDLAIGVCRVYEGDNGPVLGELLTAQMLPETIKENDRWKASFIYWKLRKQEVAIKALLTAPIDLENNSSIV
